Test results from PMC7380489 (NAR Cancer, 2020).

B1: human TRIM28 RBCC domain R184D (domain or fragment)
chain: CGVCRERLRPEREPRLLPCLHSACSACLGPAAPAAANSSGDGGAAGDGTVVDCPVCKQQCFSKDIVENYFMRDSGSKAATDAQDANQCCTSCEDNAPATSYCVECSEPLCETCVEAHQDVKYTKDHTVRSTGPAKSRDGERTVYCNVHKHEPLVLFCESCDTLTCRDCQLNAHKDHQYQFLEDAVRNQRKLLASLVKRLGDKHATLQKSTKEVRSSIRQVSDVQKRVQVDVKMAILQIMKELNKRGRVLVNDAQKVTEGQQERLERQHWTMTKIQKHQEHILRFASWALESDNNTALLLSKKLIYFQLHRAL

How the values were obtained:
[1] = target: B1; assay: AUC
AUC = target: the molecule itself; assay: AUC

stoichiometry N [1]	Binder	stoichiometry N (AUC)
2 RBCC chains per 1K (2:1)	mouse ZFP568 residues 1-105 containing the first KRAB domain (1K) (domain or fragment) not shown	
	B1	2
